# Source: patent US20220251184A1 (Regeneron, published 2022)
# Changes are numbered by the printed parent chain.
# T1: Human BMP3b (human, UniProt P55107 369-478, limits assumed)
# T1 sequence (looked up): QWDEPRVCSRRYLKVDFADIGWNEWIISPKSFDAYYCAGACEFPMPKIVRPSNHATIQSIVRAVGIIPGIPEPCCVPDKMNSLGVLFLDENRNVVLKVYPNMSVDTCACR
# T2: human BMP6 (R&D Systems, Cat #507-BP) (human, UniProt P22004 375-513, limits assumed)
# T2 construct: Bought protein (R&D Systems 507-BP or 507-BP/CF); also called hBMP6; hBMP-6
# T2 sequence: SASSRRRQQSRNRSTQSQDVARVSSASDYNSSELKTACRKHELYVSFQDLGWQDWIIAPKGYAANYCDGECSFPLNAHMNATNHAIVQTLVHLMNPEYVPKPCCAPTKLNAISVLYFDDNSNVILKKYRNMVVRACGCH
# T3: Human BMP5 (human, UniProt P22003 317-454, limits assumed)
# T3 sequence (looked up): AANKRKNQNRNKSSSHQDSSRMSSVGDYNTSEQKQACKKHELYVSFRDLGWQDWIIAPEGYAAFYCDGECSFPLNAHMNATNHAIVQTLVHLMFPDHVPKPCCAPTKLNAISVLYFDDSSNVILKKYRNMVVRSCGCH
# B1: H4H17871P (antibody, V domains shown)
# VH: EVQLVESGGGLVQPGGSLRLSCAASGFTFNNYAMSWVRQAPGKGLEWVSAISGSGDSTYYADSVKGRFTISRDNSKNTLYLQMNSLRAEDTAVYYCAKRSRSSPFDPWGQGTLVTVSS
# VL: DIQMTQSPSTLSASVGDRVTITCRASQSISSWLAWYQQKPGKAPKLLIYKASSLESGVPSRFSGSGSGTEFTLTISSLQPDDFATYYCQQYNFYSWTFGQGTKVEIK
# notes: Fully human antibody; also called anti-BMP6 monoclonal antibody; BMP6 antibody of the invention
# B2: H4H17855P (antibody, V domains shown)
# VH: B1 VH with N30S, N31S, D56G, S57R, A61T, I70M, S100P, R101Y, S102N
# VL: EIVLTQSPGTLSLSPGEGATLSCRASQSVSSSYLAWYQQKPGQAPRLLIYGASSRATGIPDRFSGSGSGTDFTLTISRLEPEDFVVYYCQHFGGTPFTFGGGTKVEIK
# notes: as for B1
# Assays:
# [1] = target: T1, Human BMP3b; assay: BLI (Octet HTX), mAb captured on Protein A sensor, 100 nM ligand, 25 C
# Method: (§1) Binding cross-reactivity of anti-BMP6 monoclonal antibodies to BMP6 family members, (Human: BMP6, BMP5, BMP7, BMP8A, BMP9, BMP10, BMP12, BMP14, BMP3b, Activin A, and GDF3 and mouse: BMP6 and GDF6) was determined using a real-time Bio-Layer Interferometry (BLI) biosensor using Octet HTX instrument. All binding studies were performed in 10 mM HEPES, 150 mM NaCl, 3 mM EDTA, 1 mg/mL BSA, 50 μg/mL Heparin, and 0.05% v/v Surfactant Tween-20, pH 7.4 (HBS-EBHT) buffer at 25° C. with the plate shaking at a speed of 1000 rpm. To assess binding cross-reactivity, Protein A coated Octet biosensor (Pall ForteBio Corp., #18-5010) was first dipped in wells containing […] of anti-BMP6 monoclonal antibodies for 4 minutes followed by submerging in wells containing 100 nM of different BMP6 family members for 4 minutes. The biosensors were washed in HBS-EBHT buffer in between every step of the experiment. At the end of each cycle, the Protein A biosensor was regenerated using three alternate 5 second dips in 10 mM Glycine pH 2.0 and 10 second dip HBS-EBHT buffer. The real-time binding response was monitored during the course of the experiment and the binding response at the end of every step was recorded and tabulated as shown in Tables 8A and 8B.
# [2] = target: T2, human BMP6 (R&D Systems, Cat #507-BP); assay: SPR (MASS-1), mAb captured on anti-human Fc, hBMP6 in solution, 37 C; no dissociation observed, kd manually fixed at 1.00E-05; 37 C; no dissociation observed, kd fixed at 1.00E-05
# Method: (§2) Equilibrium dissociation constants (KD values) for human and mouse BMP6 binding to purified anti-BMP6 monoclonal antibodies of this invention were determined using a real-time surface plasmon resonance (SPR) biosensor instrument, MASS-1. All binding studies were performed in 10 mM HEPES, 150 mM NaCl, 3 mM EDTA, 1 μg/mL Heparin, and 0.05% v/v Surfactant Tween-20, pH 7.4 (HBS-EHT) running buffer at 25° C. and 37° C. The HCA sensor surface was first derivatized by amine coupling the monoclonal mouse anti-human Fc antibody (GE, #BR100839) and anti-BMP6 monoclonal antibodies were individually captured. Different concentrations of human BMP6 reagents (hBMP6; R&D Systems, Cat #507-BP; 60 nM-0.94 nM; 4-fold serial dilution) or mouse BMP6 (mBMP6; R&D Systems, Cat #6325-BM; 60 nM and 15 nM) prepared in HBS-EHT running buffer were injected over the captured anti-BMP6 monoclonal antibody for 4 minutes at a flow rate of 30 μL/minute, while the dissociation of BMP6 reagent bound to captured anti-BMP6 monoclonal antibody was monitored for 10 minutes in HBS-EHT running buffer. Kinetic association (kₐ) and dissociation (kd) rate constants were determined by fitting the real-time binding sensorgrams to a 1:1 binding model with mass transport limitation using Scrubber 2.0c software. […]
# [3] = target: T2, human BMP6 (R&D Systems, Cat #507-BP); assay: SPR (MASS-1), mAb captured on anti-human Fc, hBMP6 in solution, 37 C; calculated with kd fixed at 1.00E-05
# Method: as §2
# [4] = target: T3, Human BMP5; assay: BLI (Octet HTX), mAb captured on Protein A sensor, 100 nM ligand, 25 C
# Method: as §1
# [5] = target: T2, human BMP6 (R&D Systems, Cat #507-BP); assay: competition ELISA, antibody titrated against 2.5 nM biot-hBMP6, plate-coated hHJV-hFc as competitor; value below the lower limit of quantitation of 1.25E-09 M
# Method: These antibody-protein complexes, after a one-hour incubation, were transferred to the microtiter plate coated with hHJV-hFc or hActR2a-hFc. After two hours of incubation at room temperature, the wells were washed, and plate-bound biot-BMP6 was detected with neutravidin conjugated with horseradish peroxidase (HRP) (Thermo Scientific, Cat #31030). The plates were then developed using TMB substrate solution (BD Biosciences, Cat #555214) according to manufacturer's recommendation and absorbance at 450 nm was measured on a Victor X5 plate reader.
# Data analysis was performed using a sigmoidal dose-response model within Prism™ software (GraphPad). […] Percent blockade at indicated concentration of the antibody tested was calculated as an indicator of the ability of the antibodies to block the binding of 2.5 nM or 1.5 nM of biot-BMP6 to hHJV-hFc or hActR2a-hFc on the plate, respectively. In the calculation, binding signal of the sample of the constant biot-BMP6 without the presence of the antibody for each assay was referenced as 100% binding or 0% blocking; and the baseline signal of the sample of buffer only without the presence of biot-BMP6 was referenced as 0% binding or 100% blocking.
# The isotype control antibody blocked <30% at concentrations up to 300 nM antibody, as expected.
# [6] = target: T2, human BMP6 (R&D Systems, Cat #507-BP); assay: SPR (MASS-1), mAb captured on anti-human Fc, hBMP6 in solution, 37 C; 37 C
# Method: as §2
Binder,binding response [1],koff [2],Kd [3],t1/2 [3],binding response [4],IC50 [5],koff [6]
B1,0.19 nm,≤ 1e-05 s⁻¹,≤ 0.24 nM,≥ 19.2 h,–,–,–
B2,–,–,–,–,0.01 nm,0.522 nM,8.17e-05 s⁻¹
